Test results as given in patent WO2018215614A1 (dated 2018).

Biological target: T1, mouse Gpa33 in which human Exon III had been substituted (mouse; human, UniProt Q9JKA5 22-70; Q99795 71-139; Q9JKA5 140-319, limits assumed)
T1 sequence (looked up): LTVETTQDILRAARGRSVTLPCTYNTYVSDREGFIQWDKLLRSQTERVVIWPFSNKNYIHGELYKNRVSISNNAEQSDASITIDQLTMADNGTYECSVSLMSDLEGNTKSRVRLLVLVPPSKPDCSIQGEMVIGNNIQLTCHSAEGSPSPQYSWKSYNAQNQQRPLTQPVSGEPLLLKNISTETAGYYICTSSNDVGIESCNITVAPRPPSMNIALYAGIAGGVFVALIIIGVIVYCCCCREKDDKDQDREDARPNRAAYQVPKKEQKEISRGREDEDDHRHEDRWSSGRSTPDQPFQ
Assay: cell-based or functional assay

B1: anti-hGpa33/Rspo4 fusion protein (antibody, human IgG1, kappa)
heavy: EVQLLESGGGLVQPGGSLRLSCAASGFAFSTYDMSWVRQAPGKGLEWVATISSGGSYTYYLDSVKGRFTISRDSSKNTLYLQMNSLQAEDSAIYYCAPTTVVPFAYWGQGTLVTVSSASTKGPSVFPLAPSSKSTSGGTAALGCLVKDYFPEPVTVSWNSGALTSGVHTFPAVLQSSGLYSLSSVVTVPSSSLGTQTYICNVNHKPSNTKVDKKVEPKSCDKTHTCPPCPAPELLGGPSVFLFPPKPKDTLMISRTPEVTCVVVDVSHEDPEVKFNWYVDGVEVHNAKTKPREQYNSTYRVVSVLPVLHQDWLNGKEYKCKVSNKALPAPIEKTISKAKGQPREPQVYTLPPSREEMTKNQVSLTCLVKGFYPSDIAVEWESNGQPENNYKTTPPVLDSDGSFFLYSKLTVDKSRWQQGNVFSCSVMHEALHYHYTQKSLSLSPGKEAAAREAAAREAAAREAAARVGTGLGGNCTGCIICSEENGCSTCQQRLFLFIRREGIRQYGKCLHDCPPGYFGIRGQEVNRCKKCGATCESCFSQDFCIRCKRQFYLYKGKCLPTCPPGTLAHQNTRECQGE
light: DIQMTQSPSSLSVSVGDRVTITCKASQNVRTVVAWYQQKPGLAPKTLIYLASNRHTGVPSRFSGSGSGTDFTFTISSLQPEDIATYFCQQHWSYPLTFGQGTKVEVKRRTVAAPSVFIFPPSDEQLKSGTASVVCLLNNFYPREAKVQWKVDNALQSGNSQESVTEQDSKDSTYSLSSTLTLSKADYEKHKVYACEVTHQGLSSPVTKSFNRGEC
In the case of B1, the “difference in cell viability (ATP-driven luciferase cell viability assay), humanized Gpa33 organoids against wildtype organoids, at 0.2 nM fusion protein” value is reported as 200 fold and the “difference in cell viability (ATP-driven luciferase cell viability assay), humanized Gpa33 organoids against wildtype organoids, at 0.4 nM fusion protein” value is reported as 25 fold.
